Measurements taken from patent US20060141529.

Target: T1, Cortactin isoform 2 (recombinant, purified from baculovirally infected insect cells)
T1 chain: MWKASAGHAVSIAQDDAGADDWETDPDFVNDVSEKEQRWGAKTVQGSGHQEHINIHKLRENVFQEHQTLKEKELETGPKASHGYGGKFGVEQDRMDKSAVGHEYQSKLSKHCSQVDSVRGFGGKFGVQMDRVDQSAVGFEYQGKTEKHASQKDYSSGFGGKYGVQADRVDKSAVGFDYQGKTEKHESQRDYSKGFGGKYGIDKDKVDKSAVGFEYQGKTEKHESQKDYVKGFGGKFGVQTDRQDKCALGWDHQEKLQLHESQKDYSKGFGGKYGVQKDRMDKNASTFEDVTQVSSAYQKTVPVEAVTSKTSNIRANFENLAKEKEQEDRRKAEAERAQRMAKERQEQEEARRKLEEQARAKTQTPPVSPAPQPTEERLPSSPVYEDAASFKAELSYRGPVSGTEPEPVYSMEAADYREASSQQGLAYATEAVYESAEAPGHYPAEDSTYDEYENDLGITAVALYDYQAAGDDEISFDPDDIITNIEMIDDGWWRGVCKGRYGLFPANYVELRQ

B1: ARG, wild type, constructed from mouse cDNA (recombinant) (protein)
chain: MGQQVGRVGEAPGLQQPQPRGIRGSSAARPSGRRRDPAGRTADAGFNVFTQHDHFASCVEDGFEGDKTGGSSPEVLHRPFGCDAESQALNEAIRWSSKENLLGATESDPNLFVALYDFVASGDNTLSITKGEKLRVLGYNQNGEWSEVRSKNGQGWVPSNYITPVNSLEKHSWYHGPVSRSAAEYLLSSLINGSFLVRESESSPGQLSISLRYEGRVYHYRINTTTDSKVYVTAESRFSTLAELVHHHSTVADGLVTTLHYPAPKCNKPTVYGVSPIHDKWEMERTDITMKHKLGGGQYGEVYVGVWKKYSLTVAVKTFKEDTMEVEEFLKEAAVMKEIKHPNLVQLLGVCTLEPPFYIVTEYMPYGNLLDYLRECSREEVTAVVLLYMATQISSAMEYLEKKNFIHRDLAARNCLVGENHVVKVADFGLSRLMTGDTYTAHAGAKFPIKWTAPESLAYNTFSIKSDVWAFGVLLWEIATYGMSPYPGIDLSQVYDLLEKGYRMEQPEGCPPKVYELMRACWKWSPADRPSFAETHQAFETMFHDSSISEEVAEELGRTASSSSVVPYLPRLPLLPSKTRTLRKQGENKENLDGGLDAAESLASSSAPAGFIRSTQASSGSPALPRKQRDKSPSSLLEDAKETCFTRDRKGGFFSSFMKKRNAPTPPKRSSSFREMENQPHKKYELTGNFSPVASLQNADGFSVAPSQQEPNLVPAKCYGGSFAQRNLCADDDSGGGGGSGTAGGGWSGITGFFTPRLIKKTLGLRAGKPTASDDTSKPFPRSNSTSSMSSGLPEQDRMAMTLPRNCQRSKLQLERTVSTSSQPEENVDRANDMLPKKSEEGAAPARERPKAKLLPRGATALPLRAPDPAITESDSPGVGVAGVAAAPKGKERNGGTRLGVAGVPEDGEQLGWSSPAKAVAVLPTTHNHKVPVLISPTLKHTPADVQLIGTDSQGNKFKLLSEHQVTSSGDKDRPRRVKPKCAPPPPPVMRLLQHPSTCSDPEEEPTAPPAGQHTPETQEGGKKAAPGPVPSSGKPGRPVMPPPQVPLPTSSISPAKMANGTAGTKVALRKTKQAAEKISADKISKEALLECADLLSSAITEPVPNSQLVDTGHQLLDYCSGYVDSIPQTRNKFAFREAVSKLELSLQELQVSSTAAGVPGTNPVLNNLLSCVQEISDVVQR
For B1, the “KM (steady-state in vitro kinase assay)” value was “KM of 110 nM and 60 nM for ABL and ARG, respectively” and the “kcat (steady-state in vitro kinase assay)” value was “The kcat for ABL and ARG is 0.05 min-1”.
